T1: pan-hSYT2 (antigenic peptide for panning, Human SYT2 position 1-62) (human, lysine residue bound to biotin (position marked only in a picture of the sequence))
T1 construct: Synthetic biotinylated peptide, immobilised on streptavidin biosensors in the Octet measurements; also called N-terminal domain of human Synaptotagmin 2
T1 peptide: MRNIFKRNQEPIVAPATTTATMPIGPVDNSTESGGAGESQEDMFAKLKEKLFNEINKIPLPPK

B1: first monoclonal antibody according to the present invention (antibody, human IgG1, V domains shown)
VH: EVQLQESGAELVRPGASVKLSCKASGYTFTDYEMHWVKQTPVHGLEWIGAIDPETGGTAYNQKFKGKATLTADKSSSTAYMELRSLTSEDSAVYYCTRGNDGYNEDYWGQGTTLTVSS
VL: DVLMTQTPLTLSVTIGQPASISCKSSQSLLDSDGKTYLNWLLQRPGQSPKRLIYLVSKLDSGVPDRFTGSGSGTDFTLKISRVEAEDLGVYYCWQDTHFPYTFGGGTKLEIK
notes: Mouse VH and VL from a phage display scFv clone; also called first antibody; first anti-SYT2 antibody
B2: second monoclonal antibody according to the present invention (antibody, human IgG1, V domains shown)
VH: QVQLQQSGAELVRPGASVKLSCKASGYTFTDYEMHWVKQTPVHGLEWIGAIDPETGGTAYNQKFKGKATLTADKSSSTAYMELRSLTSEDSAVYYCTRGNDGYNEDYWGQGTSLTVSS
VL: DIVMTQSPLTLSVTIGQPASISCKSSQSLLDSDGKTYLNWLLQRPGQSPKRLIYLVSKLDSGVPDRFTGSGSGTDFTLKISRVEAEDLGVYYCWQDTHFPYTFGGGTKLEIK
notes: also called second antibody; second anti-SYT2 antibody

Legend:
[1] = molecular target: T1, pan-hSYT2 (antigenic peptide for …); assay: BLI (Octet RED96e), biotinylated pan-hSYT2 on streptavidin biosensor, antigen loaded at 0.05 ug/mL
[2] = molecular target: T1, pan-hSYT2 (antigenic peptide for …); assay: BLI (Octet RED96e), same manner as Example 2, antigen loaded at 0.2 ug/mL

Binder | Kd [1] | koff [1] | kon [1] | koff [2]
B1 | 0.0267 nM | 7.01e-06 s⁻¹ | 263000 M⁻¹ s⁻¹ | 
B2 |  |  |  | 1.35e-05 s⁻¹

From patent publication EP4722241A1 (Jiksak Bioengineering, Inc., dated 2024)
